From patent US20250215059A1 (REGENTS OF THE UNIVERSITY OF COLORADO A BODY CORPORATE, published 2025) come the findings set out here.

Assay [1] concerns the target T1, tau aggregates in HEK293 tau biosensor cells (4R repeat domain of tau (K18) with the P301S mutation fused to … (UniProt P10636-8 244-372)).
T1 construct: domain: 4R repeat domain of tau (K18); Aggregated, insoluble form inside cells; the aggregates are seeded with brain homogenate of tau transgenic mice and may hold other proteins and RNA; Number of chains in an aggregate not defined; also called cytoplasmic tau aggregates; nuclear tau aggregates; not shown: CFP or YFP fused to the repeat domain
Kind of assay: Halo (JF646) imaging in seeded HEK293 tau biosensor cells.

Assay [2] addresses T1, tau aggregates in HEK293 tau biosensor …. In words: Halo (JF646) imaging; intensity in aggregate over adjacent region, five aggregates.
Excerpt: The locations of the serine repeats are shown in yellow. B) Quantification of the enrichment of the various Halo tagged constructs in cytoplasmic tau aggregates. Cells both expressing the halo tagged construct and containing a tau aggregate were identified by hand, and the average Halo intensity within the tau aggregates were normalized by an adjacent region outside of the tau aggregate to calculate enrichment. […] C) Representative images of cells expressing the various Halo tagged C-terminal SRRM2 fragments. Cells were labeled with 200 nM JF646 added directly to culture media for 24 hours prior to fixation and imaging.
For assay [3] the target is unchanged. In words: cell-based or functional assay.
The target is the same in assay [4]. Kind of assay: Halo (JF646) imaging; intensity in aggregate over adjacent region, 5 aggregates.

T1 sequence (P10636 561-689 P618S): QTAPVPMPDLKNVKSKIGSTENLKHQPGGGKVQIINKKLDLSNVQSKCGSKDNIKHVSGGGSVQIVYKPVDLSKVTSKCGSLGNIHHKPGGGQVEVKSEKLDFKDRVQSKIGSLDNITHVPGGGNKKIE

B1: Frag_0-Halo (SRRM2 a.a. 2651-2752) (other)
chain: PAKPGPQALPKPASPKKPPPGERRSRSPRKPIDSLRDSRSLSYSPVERRRPSPQPSPRDQQSSSSERGSRRGQRGDSRSPSHKRRRETPSPRPMRHRSSRSPMAEIGTGFPFDPHYVEVLGERMHYVDVGPRDGTPVLFLHGNPTSSYVWRNIIPHVAPTHRCIAPDLIGMGKSDKPDLGYFFDDHVRFMDAFIEALGLEEVVLVIHDWGSALGFHWAKRNPERVKGIAFMEFIRPIPTWDEWPEFARETFQAFRTTDVGRKLIIDQNVFIEGTLPMGVVRPLTEVEMDHYREPFLNPVDREPLWRFPNELPIAGEPANIVALVEEYMDWLHQSPVPKLLFWGTPGVLIPPAEAARLAKSLPNCKAVDIGPGLNLLQEDNPDLIGSEIARWLSTLEISG
modifications: JF646 Halo ligand covalently bound to the Halo tag
notes: PCR amplified from the SRRM2_FL-Halo cell line and expressed from a pcDNA plasmid with an added start codon
On to B1, for which the binding result in assay [1] is reported as “no binding”. For the same molecule, the “mean enrichment in cytoplasmic tau aggregates” value (from here on “mean enrichment”) in assay [2] worked out at 1.1 ratio.

B2: SRRM2 C-terminus-TNPO3-halo (other)
chain: MEGAKPTLQLVYQAVQALYHDPDPSGKERASFWLGELQRSVHAWEISDQLLQIRQDVESCYFAAQTMKMKIQTSFYELPTDSHASLRDSLLTHIQNLKDLSPVIVTQLALAIADLALQMPSWKGCVQTLVEKYSNDVTSLPFLLEILTVLPEEVHSRSLRIGANRRTEIIEDLAFYSSTVVSLLMTCVEKAGTDEKMLMKVFRCLGSWFNLGVLDSNFMANNKLLALLFEVLQQDKTSSNLHEAASDCVCSALYAIENVETNLPLAMQLFQGVLTLETAYHMAVAREDLDKVLNYCRIFTELCETFLEKIVCTPGQGLGDLRTLELLLICAGHPQYEVVEISFNFWYRLGEHLYKTNDEVIHGIFKAYIQRLLHALARHCQLEPDHEGVPEETDDFGEFRMRVSDLVKDLIFLIGSMECFAQLYSTLKEGNPPWEVTEAVLFIMAAIAKSVDPENNPTLVEVLEGVVRLPETVHTAVRYTSIELVGEMSEVVDRNPQFLDPVLGYLMKGLCEKPLASAAAKAIHNICSVCRDHMAQHFNGLLEIARSLDSFLLSPEAAVGLLKGTALVLARLPLDKITECLSELCSVQVMALKKLLSQEPSNGISSDPTVFLDRLAVIFRHTNPIVENGQTHPCQKVIQEIWPVLSETLNKHRADNRIVERCCRCLRFAVRCVGKGSAALLQPLVTQMVNVYHVHQHSCFLYLGSILVDEYGMEEGCRQGLLDMLQALCIPTFQLLEQQNGLQNHPDTVDDLFRLATRFIQRSPVTLLRSQVVIPILQWAIASTTLDHRDANCSVMRFLRDLIHTGVANDHEEDFELRKELIGQVMNQLGQQLVSQLLHTCCFCLPPYTLPDVAEVLWEIMQVDRPTFCRWLENSLKGLPKETTVGAVTVTHKQLTDFHKQVTSAEECKQVCWALRDFTRLFRGTELGSTSPVWWNSADIQSRCLIAQTTPVAGSQSLSSGAVATTTSSAGDHNGMLSVPAPGVPHSDVGEPPASTGAQQPSALAALQPAKERRSSSSSSSSSSSSSSSSSSSSSSSSSGSSSSDSEGSSLPVQPEVALKRVPSPTPAPKEAVREGRPPEPTPAKRKRRSSSSSSSSSSSSSSSSSSSSSSSSSSSSSSSSSSSSSSSSSSPSPAKPGPQALPKPASPKKPPPGERRSRSPRKPIDSLRDSRSLSYSPVERRRPSPQPSPRDQQSSSSERGSRRGQRGDSRSPSHKRRRETPSPRPMRHRSGGSGGSGGGSEIGTGFPFDPHYVEVLGERMHYVDVGPRDGTPVLFLHGNPTSSYVWRNIIPHVAPTHRCIAPDLIGMGKSDKPDLGYFFDDHVRFMDAFIEALGLEEVVLVIHDWGSALGFHWAKRNPERVKGIAFMEFIRPIPTWDEWPEFARETFQAFRTTDVGRKLIIDQNVFIEGTLPMGVVRPLTEVEMDHYREPFLNPVDREPLWRFPNELPIAGEPANIVALVEEYMDWLHQSPVPKLLFWGTPGVLIPPAEAARLAKSLPNCKAVDIGPGLNLLQEDNPDLIGSEIARWLSTLEISG
Take B2: the “tau aggregation by flow cytometry (FRET+ cells and integrated FRET density, normalized to no insert Halo)” value in assay [3] was around 50 % decrease.

B3: Halo tagged 5 serine repeat (other)
chain: SSSSSMAEIGTGFPFDPHYVEVLGERMHYVDVGPRDGTPVLFLHGNPTSSYVWRNIIPHVAPTHRCIAPDLIGMGKSDKPDLGYFFDDHVRFMDAFIEALGLEEVVLVIHDWGSALGFHWAKRNPERVKGIAFMEFIRPIPTWDEWPEFARETFQAFRTTDVGRKLIIDQNVFIEGTLPMGVVRPLTEVEMDHYREPFLNPVDREPLWRFPNELPIAGEPANIVALVEEYMDWLHQSPVPKLLFWGTPGVLIPPAEAARLAKSLPNCKAVDIGPGLNLLQEDNPDLIGSEIARWLSTLEISG
modifications: JF646 Halo ligand covalently bound to the Halo tag
notes: also called 5-serines
For the molecule B3, the “mean enrichment” value in assay [4] was 0.95 ratio.

B4: 42-polyserine-TNPO3-halo (other)
chain: MEGAKPTLQLVYQAVQALYHDPDPSGKERASFWLGELQRSVHAWEISDQLLQIRQDVESCYFAAQTMKMKIQTSFYELPTDSHASLRDSLLTHIQNLKDLSPVIVTQLALAIADLALQMPSWKGCVQTLVEKYSNDVTSLPFLLEILTVLPEEVHSRSLRIGANRRTEIIEDLAFYSSTVVSLLMTCVEKAGTDEKMLMKVFRCLGSWFNLGVLDSNFMANNKLLALLFEVLQQDKTSSNLHEAASDCVCSALYAIENVETNLPLAMQLFQGVLTLETAYHMAVAREDLDKVLNYCRIFTELCETFLEKIVCTPGQGLGDLRTLELLLICAGHPQYEVVEISFNFWYRLGEHLYKTNDEVIHGIFKAYIQRLLHALARHCQLEPDHEGVPEETDDFGEFRMRVSDLVKDLIFLIGSMECFAQLYSTLKEGNPPWEVTEAVLFIMAAIAKSVDPENNPTLVEVLEGVVRLPETVHTAVRYTSIELVGEMSEVVDRNPQFLDPVLGYLMKGLCEKPLASAAAKAIHNICSVCRDHMAQHFNGLLEIARSLDSFLLSPEAAVGLLKGTALVLARLPLDKITECLSELCSVQVMALKKLLSQEPSNGISSDPTVFLDRLAVIFRHTNPIVENGQTHPCQKVIQEIWPVLSETLNKHRADNRIVERCCRCLRFAVRCVGKGSAALLQPLVTQMVNVYHVHQHSCFLYLGSILVDEYGMEEGCRQGLLDMLQALCIPTFQLLEQQNGLQNHPDTVDDLFRLATRFIQRSPVTLLRSQVVIPILQWAIASTTLDHRDANCSVMRFLRDLIHTGVANDHEEDFELRKELIGQVMNQLGQQLVSQLLHTCCFCLPPYTLPDVAEVLWEIMQVDRPTFCRWLENSLKGLPKETTVGAVTVTHKQLTDFHKQVTSAEECKQVCWALRDFTRLFRGTELGSTSPVWWNSADISSSSSSSSSSSSSSSSSSSSSSSSSSSSSSSSSSSSSSSSSSGGSGGSGGGSEIGTGFPFDPHYVEVLGERMHYVDVGPRDGTPVLFLHGNPTSSYVWRNIIPHVAPTHRCIAPDLIGMGKSDKPDLGYFFDDHVRFMDAFIEALGLEEVVLVIHDWGSALGFHWAKRNPERVKGIAFMEFIRPIPTWDEWPEFARETFQAFRTTDVGRKLIIDQNVFIEGTLPMGVVRPLTEVEMDHYREPFLNPVDREPLWRFPNELPIAGEPANIVALVEEYMDWLHQSPVPKLLFWGTPGVLIPPAEAARLAKSLPNCKAVDIGPGLNLLQEDNPDLIGSEIARWLSTLEISG
For the molecule B4, the “tau aggregation by flow cytometry (FRET+ cells and integrated FRET density, normalized to no insert Halo)” value in assay [3] was around 50 % decrease.

B5: Halo tagged 10 serine repeat (other)
chain: SSSSSSSSSSMAEIGTGFPFDPHYVEVLGERMHYVDVGPRDGTPVLFLHGNPTSSYVWRNIIPHVAPTHRCIAPDLIGMGKSDKPDLGYFFDDHVRFMDAFIEALGLEEVVLVIHDWGSALGFHWAKRNPERVKGIAFMEFIRPIPTWDEWPEFARETFQAFRTTDVGRKLIIDQNVFIEGTLPMGVVRPLTEVEMDHYREPFLNPVDREPLWRFPNELPIAGEPANIVALVEEYMDWLHQSPVPKLLFWGTPGVLIPPAEAARLAKSLPNCKAVDIGPGLNLLQEDNPDLIGSEIARWLSTLEISG
modifications: JF646 Halo ligand covalently bound to the Halo tag
notes: also called 10-serines
As to B5, in assay [4], the “mean enrichment” value was found to be 1.05 ratio.

B6: Halo alone (other)
chain: MAEIGTGFPFDPHYVEVLGERMHYVDVGPRDGTPVLFLHGNPTSSYVWRNIIPHVAPTHRCIAPDLIGMGKSDKPDLGYFFDDHVRFMDAFIEALGLEEVVLVIHDWGSALGFHWAKRNPERVKGIAFMEFIRPIPTWDEWPEFARETFQAFRTTDVGRKLIIDQNVFIEGTLPMGVVRPLTEVEMDHYREPFLNPVDREPLWRFPNELPIAGEPANIVALVEEYMDWLHQSPVPKLLFWGTPGVLIPPAEAARLAKSLPNCKAVDIGPGLNLLQEDNPDLIGSEIARWLSTLEISG
modifications: JF646 Halo ligand covalently bound
notes: Control without a targeting motif; also called Halo tag; Halo protein
Consider B6, for which the binding result in assay [1] was “no binding”. Further, the “mean enrichment” value in assay [2] worked out at 1.08 ratio.
